Results from US8889130B2, “Treatment of osteoarthritis and pain” (Abbvie Inc., priority 2011, dated 2014).

T1: hIL-1α (Homo sapiens, UniProt P01583)
T1 sequence (P01583 113-271): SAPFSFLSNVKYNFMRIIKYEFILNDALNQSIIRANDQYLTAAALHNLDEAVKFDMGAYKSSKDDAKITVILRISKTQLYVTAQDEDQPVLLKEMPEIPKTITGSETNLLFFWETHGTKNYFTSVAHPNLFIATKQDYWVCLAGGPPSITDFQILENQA


Columns and labels:
[1] = biological target: T2, hIL-1β (Homo sapiens, UniProt P01584); test: Surface plasmon resonance (Biacore) binding kinetics and affinity to hIL-1β; conditions: for koff / kon / Kd / Stoichiometry: antigen hIL-1β; for Kd: KD=koff/kon; for Stoichiometry: saturating binding conditions
Protocol: (§1) The kinetics of DVD-Ig molecules binding to rhIL1-α and rhIL1-β was determined by surface plasmon resonance-based measurements with a Biacore 3000 instrument (Biacore AB, Uppsala, Sweden) using HBS-EP (10 mM HEPES, pH 7.4, 150 mM NaCl, 3 mM EDTA, and 0.005% surfactant P20) at 25° C. All chemicals were obtained from Biacore AB (Uppsala, Sweden) or otherwise from a different source as described herein. Approximately, 5000 RU of goat anti-human IgG Fcγ fragment specific polyclonal antibody (Pierce Biotechnology Inc, Rockford, Ill.) diluted in 10 mM sodium acetate (pH 4.5) was directly immobilized across a CM5 research grade biosensor chip using a standard amine coupling kit according to manufacturer's instructions and procedures at […]. Unreacted moieties on the biosensor surface were blocked with ethanolamine. Modified carboxymethyl dextran surface in flowcell 2 and 4 was used as a reaction surface. Unmodified carboxymethyl dextran without goat anti-human IgG in flow cell 1 and 3 was used as the reference surface. For kinetic analysis, rate equations derived from the 1:1 Langmuir binding model were fitted simultaneously to association and dissociation phases of all ten injections (using global fit analysis) using the Bioevaluation 4.0.1 software. Purified DVD-Ig samples were diluted in HEPES-buffered saline for capture across goat anti-human IgG Fc specific reaction surfaces and injected over reaction matrices at a flow rate of […]. The association and dissociation rate constants, kon (M-1s-1) and koff (s-1) were determined under a continuous flow rate of […]. Rate constants were derived by making kinetic binding measurements at ten different antigen concentrations ranging from 1.25 to 1000 nM. The equilibrium dissociation constant (M) of the reaction between DVD-Ig molecule and rhIL1α/β was then calculated from the kinetic rate constants by the following formula: KD=koff/kon. Aliquots of rhIL1α/β samples were also simultaneously injected over a blank reference and reaction CM surface to record and subtract any nonspecific binding background to eliminate the majority of the refractive index change and injection noise. Surfaces were regenerated with two subsequent […] injections of 10 mM Glycine (pH 1.5) at a flow rate of […]. The anti-Fc antibody immobilized surfaces were completely regenerated and retained their full capture capacity over twelve cycles. The apparent stoichiometry of the captured DVD-Ig-rhIL1α/β complex was calculated under saturating binding conditions (steady-state equilibrium) using the following formula: […]

[2] = biological target: T2, hIL-1β; test: MRC-5 bioassay: neutralization of hIL-1β-induced IL-8 production; assay type: cell-based
Protocol: The MRC-5 cell line is a human lung fibroblast cell line that produces IL-8 in response to human IL-1α and IL-1β in a dose-dependent manner (see, Dinarello, Muegge, and Durum (2000) Curr. Protocols Immunol. 6:1). MRC-5 cells were cultured in 10% FBS complete MEM and grown at 37° C. in a 5% CO2 incubator. […] The supernatants were harvested, diluted, and IL-8 concentrations measured by ELISA using a standard IL-8 ELISA kit (R&D Systems). Antibody potency was determined by its ability to inhibit IL-8 production by MRC-5 cells.
The biological activity of DVD-Ig was measured using MRC-5 bioassay. The MRC-5 cell line is a human lung fibroblast cell line that produces IL-8 in response to human IL-1α and IL-1β in a dose-dependent manner. MRC-5 cells were obtained from ATCC and cultured in 10% FBS complete MEM at 37° C. in a 5% CO2 incubator. To determine neutralizing activity of the DVD-Ig against human IL-1α or IL-1β, 50 μl of antibody (1×10^−7 to 1×10^−12 M) in MEM/10% FBS was added to a 96 well plate and pre-incubated with 50 μl of hIL-1α or hIL-1β (200 pg/ml) for 1 hour at 37° C., 5% CO2. […] The supernatants were harvested and human IL-8 production measured by standard ELISA (R&D Systems, Minneapolis, Minn.). Neutralizing activity of the DVD-Ig binding protein was determined by its ability to inhibit IL-8 production.

[3] = biological target: T1, hIL-1α; test: Surface plasmon resonance (Biacore) binding kinetics and affinity to hIL-1α; conditions: antigen hIL-1α; for Kd: KD=koff/kon
Protocol: as §1

T2 sequence (P01584 117-269): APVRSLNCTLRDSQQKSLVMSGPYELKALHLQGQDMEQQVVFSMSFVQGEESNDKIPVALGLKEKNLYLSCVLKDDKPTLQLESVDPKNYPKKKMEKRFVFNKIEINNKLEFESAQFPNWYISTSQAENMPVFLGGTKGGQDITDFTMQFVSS

koff [1] [s⁻¹] | kon [1] [M⁻¹ s⁻¹] | Kd [1] [nM] | Stoichiometry [1] | IC50 ([2]; antigen hIL-1β, read-out: Potency IC50) [nM] | koff [3] [s⁻¹] | kon [3] [M⁻¹ s⁻¹] | Kd [3] [nM] | Stoichiometry ([3]; saturating binding conditions) | binding affinity to hIL-1β, fold higher than that of DVD1-Ig [1] [fold] | neutralizing activity to hIL-1β, fold higher than that of DVD1-Ig [2] [fold] | Molecule
0.00159 | 609000 | 2.6 | 1.5 | 3.1 | 0.000105 | 37000 | 2.83 | 1.8 |  |  | DVD1-Ig: DVD-Ig binding hIL-1α and hIL-1β; VH/VL of 13F5.G5 fused directly to N-terminus of 3D12.E3 VH/VL, no linker (antibody) VH: MQLSGLTSEDSAMYFCVRFPTGNDYYAMDYWGQGTSVTVSSQIQLVQSGPELKKPGETVKISCKASGYTFRNYGMNWVKQAPGKDLKRMAWINTYTGESTYADDFKGRFAFSLETSASTAYLQINNLKNEDTATYFCARGIYYYGSSYAMDYWGQGTSVTVSS VL: PVEADDAATYYCQQNNEDPFTFGSGTKLEIKRNIQMTQTTSSLSASLGDRVTISCRASQDISNCLNWYQQKPDGTVKLLIYYTSRLHSGVPSRFSGSGSGTDYSLTISNLEQEDIATYFCQQGKTLPYAFGGGTKLEINRR
0.00095 | 1.19e+06 | 0.798 | 1.8 |  | 0.000252 | 73500 | 3.42 |  | 3 | 3 | DVD2-Ig: DVD-Ig as DVD1-Ig but with linkers ADAAP (light chain) and AKTTPP (heavy chain) (antibody) VH: MQLSGLTSEDSAMYFCVRFPTGNDYYAMDYWGQGTSVTVSSAKTTPPQIQLVQSGPELKKPGETVKISCKASGYTFRNYGMNWVKQAPGKDLKRMAWINTYTGESTYADDFKGRFAFSLETSASTAYLQINNLKNEDTATYFCARGIYYYGSSYAMDYWGQGTSVTVSS VL: PVEADDAATYYCQQNNEDPFTFGSGTKLEIKRADAAPNIQMTQTTSSLSASLGDRVTISCRASQDISNCLNWYQQKPDGTVKLLIYYTSRLHSGVPSRFSGSGSGTDYSLTISNLEQEDIATYFCQQGKTLPYAFGGGTKLEINR
